Results published in PMC4942342.

Target: sHRPb-NLG (evolved sHRPb fused to neuroligin) (horseradish | not stated)
Test: split reporter

signal to noise ratio (fluorescence intensity relative to background): 1.5 to 13.4
Substance: sHRPa-NRX (evolved sHRPa fused to neurexin)
